Test: Aldol cleavage reaction of fructose 1,6-bisphosphate, coupled with TIM/G3PDH, NADH 340 nm
Format: biochemical
Conditions: F1,6P2 cleaved, 37° C., 30 minutes, pH 8.0
Protocol: The aldolase activity of the human 35 kd protein was determined as follows, according to the method described in a reference (Novel Biochemistry Experiment Lectures, Vol. 15, Metabolism Abnormality, p. 111, edit. Biochemical Society of Japan, publish. Tokyo Kagaku Dojin-sha, Sep. 22, 1992):
Conjugated with triose phosphate isomerase (TIM) and glycerol 3-phosphate dehydrogenase (G3PDH), the aldol cleavage reaction of fructose 1,6-bisphosphate (F1, 6P2) with the 35 kd protein was determined with NADH.
A reaction liquid having the composition mentioned below was prepared, and reacted at 37° C. for 30 minutes. The enzymatic reaction was monitored through the reduction in the 340 nm absorbance owing to the oxidation of NADH in the reaction liquid. The enzymatic reaction was indicated by the number of mols of F1, 6P2, per mg of the protein, cleaved within 1 minute (μmol/min/mg protein).
Reaction liquid 200 μl: 0.25 mM tris HCl buffer (pH 8.0), 0.15 M NaCl, 0.5 mM F1, 6P2 (from Sigma), human 35 kd protein, human liver TIM (500 μg/ml), rabbit skeletal muscle G3PDH (8 units/ml, from Sigma), 0.3 mM NADH (from Nakarai).
For comparison, a commercial product aldolase, Sigma's rabbit skeletal muscle aldolase (A-type aldolase), and an enzyme-free system were tested in the same manner.

B1: Human 35 kd protein: novel 35 kd protein, amino acid sequence SEQ ID NO: 2, expressed in E. coli and purified (protein, listed as Homo sapiens)
chain: MLGPQVWSSVRQGLSRSLSRNVGVWASGEGKKVDIAGIYPPVTTPFTATAEVDYGKLEENLHKLGTFPFRGFVVQGSNGEFPFLTSSERLEVVSRVRQAMPKNRLLLAGSGCESTQATVEMTVSMAQVGADAAMVVTPCYYRGRMSSAALIHHYTKVADLSPIPVVLYSVPANTGLDLPVDAVVTLSQHPNIVGMKDSGGDVTRIGLIVHKTRKQDFQVLAGSAGFLMASYALGAVGGVCALANVLGAQVCQLERLCCTGQWEDAQKLQHRLIEPNAAVTRRFGIPGLKKIMDWFGYYGGPCRAPLQELSPAEEEALRMDFTSNGWL
  Aldolase Activity (μmol/min/mg protein): 0.0034 μmol/min/mg protein

— patent US7371842B2, “Polynucleotide encoding a 35 KDA protein thats binds to WF00144” (Astellas Pharma Inc., priority 2002, dated 2008)
